System: MS2 coat protein
Test: apparent KD of MS2 coat protein; designed switch direction (-1 OFF switch, 1 ON switch): -1; higher = weaker reporter binding
In short: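 Apparent KD, taken as the median over clusters for each design, was obtained by curve-fitting normalised cluster fluorescence. Designed RNA switches had been transcribed on Illumina chips by stalled E. coli RNA polymerase and titrated with SNAP-549-labelled MS2 coat protein, doubling from 0.7 or 1.5 nM to 3 µM.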

[1] = Eterna round: R95, input ligand: microRNA oligo, concentration not stated
[2] = input ligand: microRNA oligo, concentration not stated

## AGCAUGCUAGGAUAUACGGGACAUUAGGGUUCGUCGUAUGGACAUGAGGAUCACCCAUGUAGAAGGAGCGUGCA [Mat - Exclusion 2 - Mod of Hyphema - D93] (puzzle: Exclusion 2)
[1]
  apparent KD of MS2 coat protein: 19.9 nM

## GCUUGUAGAGGAUAUACAAGGGCCCGAGCGGCGAGAGCCGCACAUGAGGAUCACCCAUGUAGAAGGCUACUAUA [JL-ex2-4.21 ViennaUCT mod] (Eterna round: R97, puzzle: Exclusion 2)
Input ligand: FMN 200 uM
  apparent KD of MS2 coat protein: 201 nM
Input ligand: none
  apparent KD of MS2 coat protein: 237 nM

## GACCGGGCAGGAUAUACAAAACCUCGGUGUAUUUUGGACCGACAUGAGGAUCACCCAUGUAGAAGGGCCUAAGG [Eternabot (Original) Solution 4] (Eterna round: R97, puzzle: Exclusion 2)
Input ligand: FMN 200 uM
  apparent KD of MS2 coat protein: 34.2 nM
Input ligand: none
  apparent KD of MS2 coat protein: 23.6 nM

## UUUUUACAUGAGGAUCACCCAUGUCAGGAUAUGAUUAUAUUUUAUUAUUUUAUUUUUUUCAGAAGGGACUAUUA [My solution] (puzzle: Exclusion 1)
[1]
  apparent KD of MS2 coat protein: 80.6 nM

## ACUUAUUGAGGAUAUACAUUGAUUAACAUGAGGAUCACCCAUGUACAAACAUGUAUUUAUGUAGAAGGCAGAAGAA [JR_Ex5_Sub067] (Eterna round: R97, puzzle: Exclusion 5)
Input ligand: FMN 200 uM
  apparent KD of MS2 coat protein: 14.4 nM
Input ligand: none
  apparent KD of MS2 coat protein: 13.4 nM

## AAAACGUGAGGAUAUCCAAUAUAUGACAUGAGGAUCACCCAUGUUUCCACUCGUACCUCCGGAGAAGGCACAAUUA [Ex5 #77] (Eterna round: R97, puzzle: Exclusion 5)
Input ligand: FMN 200 uM
  apparent KD of MS2 coat protein: 46.4 nM
Input ligand: none
  apparent KD of MS2 coat protein: 43 nM

## GUAGAGUAAGGAUAUACAGAAUAGGAUAGAAUGGUUAGAAUGUAGAAGGUACAUGAGGAUCACCCAUGUAAUGU [Excluse me!!!! 8 - Jieux - Exclusion 4] (puzzle: Exclusion 4)
[1]
  apparent KD of MS2 coat protein: 19.7 nM

## UUAUAUAGAGUGAGGAUAUGCUGGUCCUUGGAUCAGCAGAAGGCACAUGAGGAUCACCCAUGUAAUAUAAUAUU [Mat - Exclusion 4 - JL Mod - D38] (puzzle: Brourd's mod of Exclusion 4)
[1]
  apparent KD of MS2 coat protein: 21.1 nM

## AACCUGAGGCUUUGCUUUAGGUGUACAUGAGGAUCACCCAUGUAGGAUAUGGUAGGCAAAGCUUACCAGAAGGACAUGUUAAUU [Mat - Exclusion NG 3 - Mod of JL - D37] (Eterna round: R96, puzzle: Exclusion NG 3)
Input ligand: FMN 200 uM
  apparent KD of MS2 coat protein: 122 nM
[2]
  apparent KD of MS2 coat protein: 44.3 nM
Input ligand: none
  apparent KD of MS2 coat protein: 59.3 nM

## GUCACAUGGACAUAGGAUCACAUGAGGAUCACCCAUGUGACUAACAAGCUUUUUGCUCGUCUUAUGUCCAUGUGAAU [Stov1/15-A3] (Eterna round: R97, puzzle: Sensor, turn-off variant 1)
Input ligand: FMN 200 uM
  apparent KD of MS2 coat protein: 13 nM
Input ligand: none
  apparent KD of MS2 coat protein: 12.9 nM

## CCAGGCUGUGUGAGGAUAUGCUGGUCCUUGGAUCAGCAGAAGGCACAUGAGGAUCACCCAUGUGAGGAGCUUGG [JL bmx4 3.28] (puzzle: Brourd's mod of Exclusion 4)
[1]
  apparent KD of MS2 coat protein: 19.9 nM

## GGAGAGAGAGGAUAUGGAGGUUGGAACAUGAGGAUCACCCAUGUUAAACCUCAUGACCGACUAGAAGGCUCAGUCC [AK-MS2ROC-r4-exclusion5-9.1] (Eterna round: R97, puzzle: Exclusion 5)
Input ligand: FMN 200 uM
  apparent KD of MS2 coat protein: 17.8 nM
Input ligand: none
  apparent KD of MS2 coat protein: 18.9 nM

## AGCUGUGGCCGAGGAUAUCUAAUAUCUCAAACCGAAAUAUAAUCGGACAUGAGGAUCACCCAUGUAGAGAAGGCGGUCUCAGCA [Eli eng2 - 064] (Eterna round: R96, puzzle: Exclusion NG 2)
[2]
  apparent KD of MS2 coat protein: 23.6 nM

## CGUGCGUAUGUGAGGAUAUGCUGGUCCUUGGCUCGGCAGAAGGCACAUGAGGAUCACCCAUGUGGUGUCGUACA [salish99_Bmod_ex4_070] (puzzle: Brourd's mod of Exclusion 4)
[1]
  apparent KD of MS2 coat protein: 69.4 nM

## UCGGCGCGAGGAUAUACGUUUGCGCGUUUUCGUUUGCGCGUACAUGAGGAUCACCCAUGUAGAAGGCGCGCCGC [Apr-15 SS2-14] (puzzle: Exclusion 2)
[1]
  apparent KD of MS2 coat protein: 13.2 nM

## AUGGGUCCUCUCGGAGCUACAUGAGGAUCACCCAUGUGUAUUGAGGAUAUCCACUGCUCAGGACUGGAGAAGGCAGUGUACUGU [Ex NG3 #88] (Eterna round: R96, puzzle: Exclusion NG 3)
Input ligand: FMN 200 uM
  apparent KD of MS2 coat protein: 56.2 nM
[2]
  apparent KD of MS2 coat protein: 33.5 nM
Input ligand: none
  apparent KD of MS2 coat protein: 59.9 nM

## AAAAUAAACCUCAUUUAAAACAUGAGGAUCACCCAUGUAAAAUGCUCGUCUUAUUAAAUGUACUCCUAGUUCGUACA [My solution] (Eterna round: R97, puzzle: Sensor, turn-off variant 1)
Input ligand: FMN 200 uM
  apparent KD of MS2 coat protein: 178 nM
Input ligand: none
  apparent KD of MS2 coat protein: 251 nM

## AUAAUGUCAGGAUAUCGAGACUACUGCUUCGGCAGUAGUCUCGAGAAGGGACAUGAGGAUCACCCAUGUGAUCA [E4/1-A1] (Eterna round: R97, puzzle: Exclusion 4)
Input ligand: FMN 200 uM
  apparent KD of MS2 coat protein: 41.8 nM
Input ligand: none
  apparent KD of MS2 coat protein: 40.8 nM

## CAUGUCCGAGGAUAUAUUAUGUGAAACAUGAGGAUCACCCAUGUUAUAUGAUGGAUGUAAAUAGAAGGCGGACGUG [Mat - Exclusion 5 - JL mod - D65] (puzzle: Exclusion 5)
Eterna round: R95, input ligand: FMN 200 uM
  apparent KD of MS2 coat protein: 26.3 nM
[1]
  apparent KD of MS2 coat protein: 31.6 nM
Eterna round: R95, input ligand: none
  apparent KD of MS2 coat protein: 34.5 nM

## AUUCGGAUAGGAUAUACUUGAGGAUCACCCAAGUGUUUGAACUAUCGUGAUCUGAAGAGUAGAAGGAUCAUCAU [Atquedzaed] (Eterna round: R97, puzzle: Exclusion 3)
Input ligand: FMN 200 uM
  apparent KD of MS2 coat protein: 176 nM
Input ligand: none
  apparent KD of MS2 coat protein: 90.7 nM

## GCUAGUCAUGUCAGGAUAUGCAGAUCCUUGGAUCUGCAGAAGGGACAUGAGGAUCACCCAUGUGCCUAACUAGC [Mat - Exclusion 4 - JL Mod - D14] (Eterna round: R97, puzzle: Brourd's mod of Exclusion 4)
Input ligand: FMN 200 uM
  apparent KD of MS2 coat protein: 479 nM
Input ligand: none
  apparent KD of MS2 coat protein: 41.6 nM

## UAGCUUUAUGUUAGGAUAUUCGCGCAUAUACUGCCGAAGAAGGAACAUGAGGAUCACCCAUGUACACGCCUAUG [Eternabot (L1) Solution 60] (Eterna round: R97, puzzle: Brourd's mod of Exclusion 4)
Input ligand: FMN 200 uM
  apparent KD of MS2 coat protein: 81.1 nM
Input ligand: none
  apparent KD of MS2 coat protein: 20.9 nM

## AAGUACCGGUGAGGAUAUUUUUAAUAGAACUUUAUGAUAUACAUGAGGAUCACCCAUGUUACUUUAAAGAAGGCAUCGGAUAAA [Mat - Exclusion NG 2 - Mod of JL - D87] (Eterna round: R96, puzzle: Exclusion NG 2)
[2]
  apparent KD of MS2 coat protein: 12 nM

## AAGGAUAGAGGAUAUACAUAGAUACAGAUUCGUGUAGUCCUACAUGAGGAUCACCCAUGUAGAAGGCUAUCCUA [Fiskers Ex 2 - 13] (puzzle: Exclusion 2)
[1]
  apparent KD of MS2 coat protein: 11.3 nM

## GGCGACCUAGGAUAUACAUGAGGAUCACCCAUGUUUAUCUAAUAGAUGAAGACGGGUUGUAGAAGGAGGAAAAU [Geriin] (puzzle: Exclusion 3)
[1]
  apparent KD of MS2 coat protein: 13.1 nM

## AGUCAGGCGGUAGGAUAUCCAUAUCGAGUGACCCUUUCAUAACAUGAGGAUCACCCAUGUCGGUGGGAGAAGGGCCGUACGGCG [JL ViennaUCT Atra mod 4] (Eterna round: R96, puzzle: Exclusion NG 2)
Input ligand: FMN 200 uM
  apparent KD of MS2 coat protein: 203 nM
[2]
  apparent KD of MS2 coat protein: 84.2 nM
Input ligand: none
  apparent KD of MS2 coat protein: 103 nM

## GAAAGAGUUCAGGAUAUCAGAGUCCAGCGACACUGAGAAGGGAAAACAUGAGGAUCACCCAUGUGGUCCUAAGC [Eternabot (L2) Solution 80] (Eterna round: R97, puzzle: Exclusion 6)
Input ligand: FMN 200 uM
  apparent KD of MS2 coat protein: 348 nM
Input ligand: none
  apparent KD of MS2 coat protein: 105 nM

## UCCUCACUUGAGGAUCACCCAAGUCAGGAUAUUCACUGAACUGCGUAGCAGUUCGGCCGAAGAAGGGAUUCGGG [Lacequla] (Eterna round: R97, puzzle: Exclusion 1)
Input ligand: FMN 200 uM
  apparent KD of MS2 coat protein: 54.8 nM
Input ligand: none
  apparent KD of MS2 coat protein: 107 nM

## AGGUUGGGCGCAUCUUGCCACAUGAGGAUCACCCAUGUUGUACCAUUAGAAGAGAACAAGCUCUUUGCUCGUCUUAU [Sensor 1 S2] (Eterna round: R97, puzzle: Sensor, turn-off variant 1)
Input ligand: FMN 200 uM
  apparent KD of MS2 coat protein: 32 nM
Input ligand: none
  apparent KD of MS2 coat protein: 39.5 nM

## UAAAGCGUAGGAUAUACAUUCAUGAGCACCACCCGGUGCACACAUGAGGAUCACCCAUGUAGAAGGAUGCUACG [Eternabot (Original) Solution 49] (Eterna round: R97, puzzle: Exclusion 2)
Input ligand: FMN 200 uM
  apparent KD of MS2 coat protein: 14.6 nM
Input ligand: none
  apparent KD of MS2 coat protein: 17.6 nM

## AACCAGCGAGGAUAUUGUUGAUAAAACAUGAGGAUCACCCAUGUCACGUGAUCUUCCCAACAAGAAGGUGCACUAA [Xeoratdior] (Eterna round: R97, puzzle: Exclusion 5)
Input ligand: FMN 200 uM
  apparent KD of MS2 coat protein: 652 nM
Input ligand: none
  apparent KD of MS2 coat protein: 301 nM

## AGUAGUUGUUUCCGUUCUUACAUGAGGAUCACCCAUGUUUCUUGACGUGCACGCGAUGCUCGUCAGACUACCAGAUG [salish99_TOv1_r3_057] (Eterna round: R96, puzzle: Sensor v3, turn-off variant 1)
Input ligand: FMN 200 uM
  apparent KD of MS2 coat protein: 60.5 nM
[2]
  apparent KD of MS2 coat protein: 37.4 nM
Input ligand: none
  apparent KD of MS2 coat protein: 57 nM

## UGCCCAGCAGGAUAUACAUGAGGAUCACCCAUGUCGAUUCAGUACGACUUAGUGCAACGUAGAAGGGCUGGGCC [Eternabot (L1) Solution 84] (Eterna round: R97, puzzle: Exclusion 3)
Input ligand: FMN 200 uM
  apparent KD of MS2 coat protein: 405 nM
Input ligand: none
  apparent KD of MS2 coat protein: 39.5 nM

## ACGCGUGGCUAGGAUAUGCAGCUAUCUGGCCAGGCAGAAGGAGCCACAUGAGGAUCACCCAUGUGGUGAUCCUC [eternacac ex6r4 sub3] (Eterna round: R97, puzzle: Exclusion 6)
Input ligand: FMN 200 uM
  apparent KD of MS2 coat protein: 12.1 nM
Input ligand: none
  apparent KD of MS2 coat protein: 11.9 nM

## UAUGGUAAAGUCAGGAUAUACGUACGUCGUUCUAGGUAGAAGGGACAUGAGGAUCACCCAUGUAUGAUAGUAAA [Ex4 #35] (Eterna round: R97, puzzle: Brourd's mod of Exclusion 4)
Input ligand: FMN 200 uM
  apparent KD of MS2 coat protein: 36.1 nM
Input ligand: none
  apparent KD of MS2 coat protein: 41.6 nM
